Test results: US20170112926A1

Biological target: hTEM8-AP (UniProt Q9H6X2)
Experiment: Biacore affinity measurement of Fab

hTEM8-AP, sequence (Q9H6X2 33-321): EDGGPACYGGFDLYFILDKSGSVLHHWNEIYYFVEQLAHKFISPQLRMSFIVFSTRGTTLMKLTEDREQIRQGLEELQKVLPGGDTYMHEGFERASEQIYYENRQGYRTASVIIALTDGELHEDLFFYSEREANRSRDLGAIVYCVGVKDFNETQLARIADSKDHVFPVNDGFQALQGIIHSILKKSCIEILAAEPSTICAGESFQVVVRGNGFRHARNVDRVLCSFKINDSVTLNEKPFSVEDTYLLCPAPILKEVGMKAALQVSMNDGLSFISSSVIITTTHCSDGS

Kd: 59.1 pM
koff: 0.00018 s⁻¹
kon: 3.05e+06 M⁻¹ s⁻¹
B1: M825 Fab (anti-TEM8 fragment antigen-binding) (Fab, V domains shown)
VH: QVQLVQSGAEVKKPGTSVKVSCKVPGYTFSSYAISWVRQAPGQGLEWMGGIIPIFGTTNYAQKFQGRVTITGEESTSTVYMELSSLRSEDTAVYYCARDTDYMFDYWGQGTLVTVSS
VL: SSELTQDPVVSVALGETVSITCQGDNLRDFYASWYQQKPGQAPLLVMYGKNRRPSGIPDRFSGSTSGNTLSLTITGAQAEDEADYYCSSRDNSKHVVFGGGTKVTVL
